Patent publication US20140271651A1 (AbbVie / Abbott, published 2014)

T1: Aleuria aurantia lectin (Aleuria aurantia, UniProt P18891 2-313)
T1 construct: also called AAL; free AAL
T1 sequence (looked up): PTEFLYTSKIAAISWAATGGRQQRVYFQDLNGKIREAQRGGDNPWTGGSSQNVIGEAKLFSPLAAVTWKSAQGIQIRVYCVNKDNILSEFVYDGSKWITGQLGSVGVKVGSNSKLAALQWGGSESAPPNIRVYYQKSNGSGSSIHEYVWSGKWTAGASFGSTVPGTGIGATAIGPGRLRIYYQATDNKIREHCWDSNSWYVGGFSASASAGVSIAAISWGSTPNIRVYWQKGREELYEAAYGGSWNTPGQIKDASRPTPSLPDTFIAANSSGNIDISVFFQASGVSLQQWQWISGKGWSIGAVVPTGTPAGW

T2: E. coli expressed human GP73 (amino acids 63 to 400) with C-terminal 6xHis tag (human, UniProt Q8NBJ4 64-401)
T2 construct: No human Fc, not glycosylated; also called GP73 produced in E. coli; E. coli GP73
T2 sequence: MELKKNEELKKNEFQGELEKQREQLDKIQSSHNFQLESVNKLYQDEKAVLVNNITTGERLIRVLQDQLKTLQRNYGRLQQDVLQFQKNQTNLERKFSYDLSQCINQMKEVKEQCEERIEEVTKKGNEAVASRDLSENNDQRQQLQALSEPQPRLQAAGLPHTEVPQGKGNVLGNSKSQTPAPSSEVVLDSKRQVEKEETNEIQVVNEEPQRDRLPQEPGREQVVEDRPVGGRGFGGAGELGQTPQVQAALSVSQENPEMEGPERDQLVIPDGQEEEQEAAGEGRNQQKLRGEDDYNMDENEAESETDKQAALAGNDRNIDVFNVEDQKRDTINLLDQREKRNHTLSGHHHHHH

B1: anti-GP73 monoclonal antibody 1A-4246 (antibody, V domains shown)
VH: EVMLVESGGGLVKPGGSLKLSCAASGFTFSSYAMSWVRLTPEKRLEWVATISSGSSYTYYPDSVKGRFTISRDNVKSTLYLQMSSLRSEDTAMYYCARNWDGELHYYAMDYWGQGTSVTVSS
VL: QIVLTQSPAIMSASLGERVTMTCTASSSVSSSYLHWYQQKPGSSPKLWVYSTSSLASGVPARFSGSGSGTSYSLTINNMEAEDAATYFCHQYHRSPYTFGGGTKLEIKR
notes: Biotin labelled in some assays; also called mAb 1A-4246; 1A-4246-Bt
B2: GP73-hFc (human GP73 amino acids 63 to 400 fused at the C-terminus to human IgG1 Fc) (Fc fusion)
chain: ELKKNEFQGELEKQREQLDKIQSSHNFQLESVNKLYQDEKAVLVNNITTGERLIRVLQDQLKTLQRNYGRLQQDVLQFQKNQTNLERKFSYDLSQCINQMKEVKEQCEERIEEVTKKGNEAVASRDLSENNDQRQQLQALSEPQPRLQAAGLPHTEVPQGKGNVLGNSKSQTPAPSSEVVLDSKRQVEKEETNEIQVVNEEPQRDRLPQEPGREQVVEDRPVGGRGFGGAGELGQTPQVQAALSVSQENPEMEGPERDQLVIPDGQEEEQEAAGEGRNQQKLRGEDDYNMDENEAESETDKQAALAGNDRNIDVFNVEDQKRDTINLLDQREKRNHTLRSVECPPCPAPPVAGPSVFLFPPKPKDTLMISRTPEVTCVVVDVSHEDPEVQFNWYVDGMEVHNAKTKPREEQFASTFRVVSVLTVVHQDWLNGKEYKCKVSNKGLPAPIEKTISKTKGQPREPQVYTLPPSREEMTKNQVSLTCLVKGFYPSDIAVEWESNGQPENNYKTTPPMLDSDGSFFLYSKLTVDKSRWQQGNVFSCSVMHEALHNHYTQKSLSLSPGK
notes: Expressed in HEK293F, CHO or HepG2 cells; the host is named under assay; also called HEK expressed GP73-hFc; CHO expressed GP73-hFc
B3: anti-GP73 monoclonal antibody 1B-3246 (antibody, V domains shown)
VH: DVKLVESGGGLVKPGGSLKLSCAASGFTFSSYTMSWVRQTPEKRLEWVATISRGGTYIYYPDSVKGRFTISRDNAKNTLYLQMSSLKSEDTAIYYCTREYFSGDTYDYFDYWGQGTTLTVSS
VL: EIVMTQAAFANPVTLGTSVSISCRSSKSLLHSNGITYLYWYLQKPGQSPQLLIYQMSNLASGVPDRFSSSGSGTDFTLRISRVEAEDVGIYYCAQNLELYTFGGGTKLEIKR
notes: Biotin labelled in some assays; also called mAb 1B-3246; 1B-3246-Bt
B4: anti-GP73 monoclonal antibody 1A-3187 (antibody, V domains shown)
VH: QGQLQQSGAELMKPGASVKISCKATGYTIRSYWIEWVKQRPGHGLEWIGEILPGSGNTNYNEKFKGTATFTADTSSNTVYLHLSSLTSEDSAVYYCANGRGSYRYHWFAYWGQGTLVTVSP
VL: DIVLTQSPASLAVSLGQRATISCKASQSVDYDGDSYMNWYQQKPGQPPKVLIYAASNLESGIPARFSGSGSGTDFTLNIHPVEEEDAATYYCQQSNEDPYTFGGGTKLEMKR
notes: Biotin labelled in some assays

Tests used:
bovine serum albumin [1] = target: T3, bovine serum albumin (bovine, UniProt P02769 25-607); experiment: EIA, supernatant 1:25 captured on sheep anti-mouse IgG Fc, BSA in place of antigen
T3 construct: also called BSA
T3 sequence (P02769 25-607 limits assumed): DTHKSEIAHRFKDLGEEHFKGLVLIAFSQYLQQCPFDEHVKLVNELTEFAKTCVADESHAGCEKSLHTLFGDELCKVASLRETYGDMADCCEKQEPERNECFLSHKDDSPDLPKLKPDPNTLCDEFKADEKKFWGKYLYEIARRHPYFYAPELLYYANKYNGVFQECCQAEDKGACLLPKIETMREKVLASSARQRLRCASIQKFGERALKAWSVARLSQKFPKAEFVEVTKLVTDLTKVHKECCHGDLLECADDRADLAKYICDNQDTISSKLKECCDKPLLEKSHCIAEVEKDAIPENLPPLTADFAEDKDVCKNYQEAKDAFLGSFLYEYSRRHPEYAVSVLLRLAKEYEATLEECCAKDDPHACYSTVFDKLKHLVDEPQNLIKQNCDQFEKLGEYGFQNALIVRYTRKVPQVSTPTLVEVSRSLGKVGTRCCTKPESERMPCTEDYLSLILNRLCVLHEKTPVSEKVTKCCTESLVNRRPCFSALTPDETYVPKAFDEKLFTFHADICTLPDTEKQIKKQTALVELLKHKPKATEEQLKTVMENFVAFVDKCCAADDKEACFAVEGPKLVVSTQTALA
Method: (§1) Cell supernatant samples were analyzed for anti-GP73 antibodies by EIA. Sheep anti-mouse IgG Fc (Jackson Immunoresearch) was coated on 96 well micro-titer EIA plates at 1 μg/mL. After the capture reagent was coated on the solid phase, it was removed and the plates were blocked using a BSA/PBS block solution. The wells were washed with distilled water and cell supernatants were added to the blocked plates and allowed to incubate at room temperature for at least one hour. A mouse monoclonal antibody 14H4-23 (Drexel University) was used a positive control. The anti-mouse IgG Fc captured the anti-GP73 mouse antibody from the supernatant. Following the incubation, the supernatants were washed off using distilled water. An irrelevant mouse-human chimeric antibody was added to all wells and incubated at room temperature for 30 min to block any captured mouse antibodies that react with the human IgG Fc fusion protein linked to the GP73 antigen. The wells were washed with distilled water and GP73-hFc was added to the plates at 200 ng/mL and incubated for 30 min. Following this incubation, the antigen was washed from the plates using distilled water. Biotin labeled goat anti-GP73 was added to the plates at 200 ng/mL and incubated for 30 min at room temperature. The plates were washed and streptavidin-HRPO (Jackson Immunoresearch) (diluted to approximately 200 ng/mL) was added to the plates and allowed to incubate for 30 min. The plates were washed with distilled water and OPD substrate was used as the chromagen to generate signal. Plates were read at 492 nm and the results were analyzed.
Positive clones were expanded to 24 well plates in IMDM supplemented with 10% FBS and HT supplement. Following 5-14 days growth, the 24 well cultures were evaluated by EIA in the same manner as previously described, except the supernatant samples were titrated against GP73-hFc and BSA to eliminate non-specific protein binders. Once again the clones generating signal at least 3 times greater than background were considered positive and selected for further evaluation.

Aleuria aurantia lectin = target: T1, Aleuria aurantia lectin; experiment: EIA, GP73-hFc captured on donkey anti-human IgG Fc, biotin AAL pre-mixed with free fucose
Method: The biotin labeled anti-GP73 mAbs were tested to determine if they were sensitive to the presence of fucose on the GP73-hFc antigen by EIA. Aleuria Aurantia Lectin (AAL) (Vector Laboratories) binds fucose with a high degree of specificity. Donkey anti-human IgG Fc (Jackson Immunoresearch) was coated on 96 well micro titer EIA plates at approximately 1 μg/mL. After the capture reagent was coated on the solid phase, the capture reagent was removed and the plates were blocked for 30 min using Protein-Free T20 (TBS) Blocking Buffer (Thermo Scientific). The wells were washed with distilled water. A 200 ng/mL solution of GP73-hFc antigen was added to the blocked plates and allowed to incubate at room temperature for at least 45 min then washed with distilled water. Fucose was added to the wells of a separate non-absorbing microtiter plate in serial dilutions starting from 1000 μg/mL Biotin labeled anti-GP73 mAbs were added to the plates at predetermined concentrations for each mAb ranging from 50 to 2000 ng/mL and incubated for 45 min at room temperature. The mixture was added to the microtiter plates with the captured GP73-hFc and allowed to incubate for 15-20 min at room temperature. Biotin labeled AAL was used as a positive control for the assay and a biotin labeled irrelevant mAb was used as the negative control. […] Plates were read at 492 nm and the results were analyzed.

[2] = target: T2, E. coli expressed human GP73 (amino …); experiment: Western blot on E. coli expressed GP73 antigen
Method: The mammalian cell (HEK and CHO) expressed GP73-hFc or E. coli expressed GP73, as described above, were electrophoresed in a 4-20% SDS-PAGE gel. […] The nitrocellulose membrane was blocked with PBS buffer containing 5% non-fat dry milk and 0.05% Tween 20 for about 1 hr. The nitrocellulose membrane was incubated with an appropriate amount of anti-GP73 monoclonal antibody in 10 mL of 2.5% non-fat dry milk and 0.05% Tween 20 PBS buffer, pH 7.2. The nitrocellulose membranes were washed with 0.05% Tween 20/PBS, pH 7.2, incubated with goat anti-mouse IgG antibody conjugated with HRP for 1 hr at room temperature, and washed with 0.05% Tween 20/PBS buffer. Antibody bound to the GP73 protein was visualized by the addition of freshly prepared metal enhanced 3,3′-Diaminobenzidine in stable peroxide buffer (Pierce, Ill.).

[3] = target: B2; experiment: SPR Biacore 2000, mAb captured on rabbit anti-mouse IgG, HEK GP73-hFc analyte 0.412-100 nM, 1:1 fit
Method: First, an approximately 13,000-15,000 RU rabbit anti-mouse IgG Capture Biosensor was created by amine-coupling rabbit anti-mouse IgG antibody (GE Healthcare) to a CM5 biosensor chip (GE Healthcare) via EDC/NHS/ethanolamine chemistry provided in an Amine Coupling Kit (GE Healthcare) after pre-treating the biosensor with duplicate injections of 100 mM HCl, 50 mM NaOH, and 0.1% SDS. Purified GP73 antibody and antigen (HEK GP73-hFc) were diluted into a running buffer (hereinafter “running buffer”) composed of HBS-EP buffer (GE Healthcare) supplemented with 0.1% BSA and 0.1% CM-Dextran. Each GP73 antibody was diluted to 1 μg/mL. The GP73-hFc antigen was diluted to concentrations of 0.412 to 100 nM using a 3-fold dilution series assuming an oligomeric molecular weight of 490 kDa (Abbott Laboratories).
The GP73-hFc antigen program was as follows. After equilibrating the rabbit anti-mouse IgG Capture Biosensor for 3 min at 5 μL/minute with running buffer, GP73 antibody (7-14 μL) was injected over individual flow cells with one flow cell being left blank as a reference flow cell. The flow cells were washed with running buffer for 3 min at a flow rate of 60 μL/min. 150 μL of HEK293 expressed GP73-hFc antigen at a random concentration was injected across the biosensor. The biosensor was subsequently re-equilibrated with running buffer for 5 min at a flow rate of 60 μL/minute. All biosensor surfaces were regenerated with one 30 μL injection of 10 mM glycine, pH 1.7 (GE Healthcare), at a flow rate of 10 μL/minute. All concentrations of HEK293 expressed antigen were tested in duplicate. The binding kinetics (association and dissociation) were monitored via sensorgrams during antigen injection and running buffer re-equilibration. The sensorgrams were double-referenced and fit to a 1:1 binding model using Scrubber 2.0 software (BioLogic Software Pty Ltd., Australia) to determine association and dissociation rates, as well as overall KD. Standard errors of determined values are reported in parentheses with respect to the smallest number place value.

bovine serum albumin [4] = target: T3, bovine serum albumin; experiment: sandwich EIA, rabbit anti-GP73 coated 1 ug/mL, BSA background, supernatant 1:125, HRP goat anti-mouse IgG Fc
Method: as §1
(§2) The 24 well cultures were then evaluated by EIA for their ability to form a sandwich with the rabbit anti-GP73 used as a capture reagent coated directly on the solid phase. The same EIA protocol previously described was used, except rabbit anti-GP73 antibody was coated at 1 μg/mL, the GP73-hFc was tested at 200 ng/mL, and a HRP labeled goat anti-mouse IgG FC antibody was used as the conjugate reagent to generate signal.

[5] = target: B2; experiment: sandwich EIA, rabbit anti-GP73 coated 1 ug/mL, GP73-hFc 200 ng/mL, supernatant 1:125, HRP goat anti-mouse IgG Fc
Method: as §1, §2

[6] = target: B2; experiment: EIA, supernatant mAb captured on sheep anti-mouse IgG Fc, GP73-hFc 200 ng/mL, biotin goat anti-GP73/streptavidin-HRPO; background 0.06
Method: as §1

Binder: B1
BSA Background OD (A492) (bovine serum albumin [1]): 0.04 OD (A492)

Binder: B2
binding result (Aleuria aurantia lectin): binds

Binder: B3
binding result [2]: binds
Kd [3]: 0.079 nM
koff [3]: 0.00025 s⁻¹
kon [3]: 3.18e+06 M⁻¹ s⁻¹
BSA Background OD (A492) (bovine serum albumin [4]): 0.1 OD (A492)
GP73-hFc OD (A492) [5]: 0.79 OD (A492)
OD (A492) [6]: 1.48 OD (A492)

Binder: B4
BSA Background OD (A492) (bovine serum albumin [1]): 0.11 OD (A492)
BSA Background OD (A492) (bovine serum albumin [4]): 0.09 OD (A492)
